Data set [1] has as its target T1, extROQ (Roquin-1 extended ROQ domain) (murine) (UniProt Q4VGL6).
T1 sequence: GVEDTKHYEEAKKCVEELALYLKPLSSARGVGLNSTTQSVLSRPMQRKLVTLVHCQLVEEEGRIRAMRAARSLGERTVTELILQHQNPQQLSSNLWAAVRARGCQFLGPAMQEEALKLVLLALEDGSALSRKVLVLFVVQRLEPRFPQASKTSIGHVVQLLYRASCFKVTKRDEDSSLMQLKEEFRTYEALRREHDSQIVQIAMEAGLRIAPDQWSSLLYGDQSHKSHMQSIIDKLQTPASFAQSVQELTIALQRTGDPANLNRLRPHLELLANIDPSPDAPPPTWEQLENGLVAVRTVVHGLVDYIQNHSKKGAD
As to the kind of experiment: optical tweezers (kinetics, koff/kon). As to conditions: low-salt buffer, Protein/RNA buffer 150 mM NaCl, 50 mM Tris pH 7.0, 1 mM TCEP, OT in low-salt near-physiological buffer (composition not in material), EMSA 3 nM RNA, 0-20 uM …. Background: Mobility shift assays separate free from complexed probe on a gel.

Data set [2] addresses T2, coreROQ (Roquin-1 core ROQ domain) (murine) (UniProt Q4VGL6).
T2 sequence: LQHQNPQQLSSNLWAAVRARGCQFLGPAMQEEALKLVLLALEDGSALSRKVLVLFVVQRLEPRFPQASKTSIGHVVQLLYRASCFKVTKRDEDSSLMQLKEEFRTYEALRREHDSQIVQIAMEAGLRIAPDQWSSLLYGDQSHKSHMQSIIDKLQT
As to the kind of experiment: optical tweezers (kinetics, koff/kon). The conditions noted are these: low-salt buffer, Protein/RNA buffer 150 mM NaCl, 50 mM Tris pH 7.0, 1 mM TCEP, OT in low-salt near-physiological buffer (composition not in material), EMSA 3 nM RNA, 0-20 uM ….

In data set [3] the target is T3, coreROQ (Roquin-1 core ROQ domain) (murine, UniProt Q4VGL6 171-326).
T3 sequence: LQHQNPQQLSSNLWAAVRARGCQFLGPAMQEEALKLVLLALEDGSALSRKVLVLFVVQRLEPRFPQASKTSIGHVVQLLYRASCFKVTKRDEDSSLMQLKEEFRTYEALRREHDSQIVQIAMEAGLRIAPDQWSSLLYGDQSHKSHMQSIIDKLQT
Description: hydroxyl radical footprinting; residues 62-87 protected, 88-100 more exposed; Protein/RNA buffer 150 mM NaCl, 50 mM Tris pH 7.0, 1 mM TCEP; OT in low-salt near-physiological buffer (composition not in material); EMSA 3 nM RNA, 0-20 uM protein, 6% native PAGE at 4 C. As to conditions: protein: recombinant; tags: His tag removed by TEV (Ni IMAC; tag type implied); label: 5' fluorescein in EMSA; none stated for NMR/CD; hairpin with hexaloop and central bulge.

For data set [4], the target named is T4, extROQ (Roquin-1 extended ROQ domain) (murine, UniProt Q4VGL6 89-404).
T4 sequence: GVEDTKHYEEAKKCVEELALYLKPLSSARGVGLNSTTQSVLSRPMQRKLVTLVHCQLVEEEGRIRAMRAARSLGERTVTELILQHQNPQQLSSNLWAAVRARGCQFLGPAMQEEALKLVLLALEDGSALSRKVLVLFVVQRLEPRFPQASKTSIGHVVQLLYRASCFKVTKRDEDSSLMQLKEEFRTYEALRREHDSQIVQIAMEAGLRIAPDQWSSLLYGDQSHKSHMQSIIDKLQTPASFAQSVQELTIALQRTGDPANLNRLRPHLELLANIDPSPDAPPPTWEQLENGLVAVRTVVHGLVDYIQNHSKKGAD
Described as above. The conditions noted are these: protein: recombinant; tags: His tag removed by TEV (Ni IMAC; tag type implied); label: 5' fluorescein in EMSA; none stated for NMR/CD; hairpin with hexaloop and central bulge.

What is called Kd is the equilibrium constant for the complex coming apart. As for “GGCAGGGCUGACGUAGUUGGAGUGGUGCGGGAGGGCCUGCCAGUACCCUCCACACCGUUCUAGGUGCUGGGCUGGCUCUGGGCAGUGAGGGCAGAAUUCAGGUG [Ox40 ADE, optical tweezers construct]”, the Kd was 1.67 nM in data set [1] (extrapolated to zero force) and 4.8 nM in data set [2] (extrapolated to zero force).

Consider “GGCAGGGCUGACGUAGUUGGAGUGGUGCGGGAGGGGCUUUCCUAUGUAUGCUAUGCAUACUACAGUGAGGGCAGAAUUCAGGUG [Ox40 CDE, optical tweezers construct]”, for which the Kd stood at 2 nM in data set [1] (zero force) and 33 nM in data set [2] (zero force).

B1: Ox40 ADE, bulk RNA (structured_RNA)
RNA: GCCUGCCAGUACCCUCCACACCGUUCUAGGUGCUGGGCUGGCUCUGGGC
On to B1, for which the binding result in data set [3] and in data set [4] was “binds” in each case.

The record behind these values is article PMC12012478, “Roquin exhibits opposing effects on RNA stem-loop stability through its two ROQ domain binding sites”.
